Test results from the supplement of paper PMC9233669.
Variants at the floor of the assay were thinned out.

Legend:
biotinyl-Phe-oxazolone = assay: self-aminoacylation, catalytic enhancement (BFO) (fold over background); higher = more active; k-Seq, kA / k0A0; sequences stand for … in GGGAAUGGAUCCACAUCUACGAAUUC…UUCACUGCAGACUUGACGAAGCUG
Outline: (§1)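 Mutagenized RNA pools with a 21-nt variable region (0.43 μM) were reacted with each biotinyl-aminoacyl-oxazolone at 2–1250 μM for 90 minutes at room temperature, in 50 μL HEPES/NaCl/KCl/MgCl2/CaCl2 buffer containing 5% acetonitrile at pH 6.9–7.0. RNA captured on streptavidin was quantified by triplicate qPCR and by Illumina sequencing. The fraction reacted for each sequence was fit to a pseudo-first-order model with bootstrapping, and catalytic enhancement is the median kA divided by the uncatalyzed rate, taken as the low-activity peak of a bimodal Gaussian fit.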

biotinyl-Ile-oxazolone = assay: self-aminoacylation, catalytic enhancement (BIO) (fold over background); higher = more active; k-Seq, kA / k0A0; sequences stand for … in GGGAAUGGAUCCACAUCUACGAAUUC…UUCACUGCAGACUUGACGAAGCUG
Outline: as §1

biotinyl-Met-oxazolone = assay: self-aminoacylation, catalytic enhancement (BMO) (fold over background); higher = more active; k-Seq, kA / k0A0; sequences stand for … in GGGAAUGGAUCCACAUCUACGAAUUC…UUCACUGCAGACUUGACGAAGCUG
Outline: as §1

biotinyl-Val-oxazolone = assay: self-aminoacylation, catalytic enhancement (BVO) (fold over background); higher = more active; k-Seq, kA / k0A0; sequences stand for … in GGGAAUGGAUCCACAUCUACGAAUUC…UUCACUGCAGACUUGACGAAGCUG
Outline: as §1

biotinyl-Leu-oxazolone = assay: self-aminoacylation, catalytic enhancement (BLO) (fold over background); higher = more active; k-Seq, kA / k0A0; sequences stand for … in GGGAAUGGAUCCACAUCUACGAAUUC…UUCACUGCAGACUUGACGAAGCUG
Outline: as §1

biotinyl-Trp-oxazolone = assay: self-aminoacylation, catalytic enhancement (BWO) (fold over background); higher = more active; k-Seq, kA / k0A0; sequences stand for … in GGGAAUGGAUCCACAUCUACGAAUUC…UUCACUGCAGACUUGACGAAGCUG
Outline: as §1

Row | Sequence | self-aminoacylation (biotinyl-Phe-oxazolone) | self-aminoacylation (biotinyl-Ile-oxazolone) | self-aminoacylation (biotinyl-Met-oxazolone) | self-aminoacylation (biotinyl-Val-oxazolone) | self-aminoacylation (biotinyl-Leu-oxazolone) | self-aminoacylation (biotinyl-Trp-oxazolone)
1 | AACUUUGCUAAAAGUCGCAAG [Fam3.1 aminoacylation ribozyme variant] | 6.96 | 3.11 | 2.47 | 2.54 | 2.98 | 4.13
2 | AUUCACCCAGGUCAUCGGGUA [Fam2.2 aminoacylation ribozyme variant] | 12.7 | 2.25 | 2.51 | 2.27 | 2.76 | 2.93
3 | AUUCACCUAGCUCAUCUGGUG [Fam2.2 aminoacylation ribozyme variant] | 5.43 | 1.17 | 1.3 | 1.05 | 1.52 | 0.967
4 | CCACAAUUUAAGCAAUCGGUC [Fam1B.1 aminoacylation ribozyme variant] | 1.12 | 1.2 | 0.776 | 1.02 | 0.824 | 0.864
5 | ACACACUUGAAGCAAUCGGUC [Fam1B.1 aminoacylation ribozyme variant] | 1.25 | 1 | 0.88 | 1.23 | 0.919 | 1.17
6 | AUCACCCUGGUCAUUGAGUGA [Fam2.1 aminoacylation ribozyme variant] | 75.1 | 5.63 | 11.3 | 5.8 | 13 | 12.9
7 | ACUACACUGGUCAUCGAGUGA [Fam2.1 aminoacylation ribozyme variant] | 13.7 | 3.3 | 4.45 | 3 | 4.81 | 5.78
8 | AUUCACGUGGGUCAUCGGGUG [Fam2.2 aminoacylation ribozyme variant] | 94 | 5.57 | 9.61 | 8.26 | 7.84 | 9.93
9 | AGUACCCUGGUUAUCGAGUGA [Fam2.1 aminoacylation ribozyme variant] | 37.4 | 3.63 | 7.87 | 4.26 | 9.55 | 9.24
10 | AUUCACCUAGGGCCUCGGGUG [Fam2.2 aminoacylation ribozyme variant] | 20.3 | 2.37 | 3.51 | 2.66 | 3.89 | 3.99
11 | UUUCAUCUAGGUCAUCGGGUG [Fam2.2 aminoacylation ribozyme variant] | 33.7 | 4.37 | 5.04 | 4.51 | 6.45 | 6.47
12 | UUUACCCUGGACAUCGAGUGA [Fam2.1 aminoacylation ribozyme variant] | 14.9 | 2.68 | 4.86 | 3.1 | 4.69 | 5.78
13 | CUACUACAAAAAAUCGGUCUG [Fam1A.1 aminoacylation ribozyme variant] | 0.76 | 0.774 | 0.857 | 0.765 | 0.678 | 0.762
14 | AUUCGCCAAGGUCAUCGGGUG [Fam2.2 aminoacylation ribozyme variant] | 91.8 | 7.65 | 10.7 | 6.69 | 14.7 | 11
15 | CUUCUUCAAACAAUCGAUCUG [Fam1A.1 aminoacylation ribozyme variant] | 1.98 | 0.624 | 0.672 | 0.647 | 0.597 | 0.841
16 | AGGUUUGCUAAUAGUUGCAAG [Fam3.1 aminoacylation ribozyme variant] | 1.44 | 1.17 | 0.863 | 0.924 | 0.994 | 0.893
17 | CUACUUCAGACAACCGGUCUG [Fam1A.1 aminoacylation ribozyme variant] | 0.886 | 0.968 | 1.22 | 1.28 | 1.03 | 0.969
18 | AUUUCCCUGGGCAUCGAGUGA [Fam2.1 aminoacylation ribozyme variant] | 32.6 | 3 | 5.56 | 3.21 | 6.7 | 6.79
19 | CUACUUCAAACCAUCAGUCUG [Fam1A.1 aminoacylation ribozyme variant] | 1.08 | 0.847 | 0.695 | 0.768 | 0.762 | 0.593
20 | CCACACUUCAAGCAAGCGGUC [Fam1B.1 aminoacylation ribozyme variant] | 0.769 | 0.87 | 0.791 | 0.961 | 0.785 | 0.62
21 | CUUACCAUGGUCAUCGAGUGA [Fam2.1 aminoacylation ribozyme variant] | 14.4 | 3.16 | 5.89 | 3 | 5.9 | 7.03

Row | Sequence | self-aminoacylation (biotinyl-Phe-oxazolone) | self-aminoacylation (biotinyl-Ile-oxazolone) | self-aminoacylation (biotinyl-Met-oxazolone) | self-aminoacylation (biotinyl-Val-oxazolone) | self-aminoacylation (biotinyl-Leu-oxazolone) | self-aminoacylation (biotinyl-Trp-oxazolone)
22 | CAACACUUCAAUCAAUCGGUC [Fam1B.1 aminoacylation ribozyme variant] | 34.9 | 1.06 | 1.19 | 1.05 | 1.66 | 19.1
23 | AUUACCCUGGACAUCGAGUGA [Fam2.1 aminoacylation ribozyme variant] | 19.6 | 2.52 | 5.32 | 2.79 | 5.18 | 5.97
24 | AAUACCCUGGUCAUCGAGAGA [Fam2.1 aminoacylation ribozyme variant] | 0.87 | 0.653 | 0.552 | 0.65 | 0.673 | 0.752
25 | CCACUCAUCAAGCAAUCGGUC [Fam1B.1 aminoacylation ribozyme variant] | 0.817 | 0.977 | 0.73 | 0.971 | 0.997 | 0.731
26 | AAAUUUGCUAAAAGUCGCAAG [Fam3.1 aminoacylation ribozyme variant] | 2.5 | 2.08 | 1.93 | 1.75 | 2.26 | 2.75
27 | CUACUUCAAACAAUCCCUCUG [Fam1A.1 aminoacylation ribozyme variant] | 0.842 | 0.74 | 0.68 | 0.525 | 0.558 | 0.44
28 | AUUAGCCUGGUCAUUGAGUGA [Fam2.1 aminoacylation ribozyme variant] | 62.6 | 4.89 | 9.25 | 5.01 | 10.3 | 12.3
29 | CCACACUUCUAGCAAUCGCUC [Fam1B.1 aminoacylation ribozyme variant] | 1.02 | 1.11 | 0.72 | 1.04 | 0.829 | 0.453
30 | CUACUUCCAACUAUCGGUCUG [Fam1A.1 aminoacylation ribozyme variant] | 1.08 | 0.81 | 0.833 | 0.92 | 0.942 | 0.744
31 | AUUCACCUAGGUCAUAUGGUG [Fam2.2 aminoacylation ribozyme variant] | 20.3 | 2.25 | 3.44 | 2.25 | 4.8 | 3.68
32 | CUACUCCUAACAAUCGGUCUG [Fam1A.1 aminoacylation ribozyme variant] | 0.659 | 0.748 | 0.504 | 0.774 | 0.667 | 0.441
33 | AUUCACCUAGGUCGCCGGGUG [Fam2.2 aminoacylation ribozyme variant] | 18.5 | 3.4 | 3.99 | 3.25 | 3.8 | 3.38
34 | AUUCACGUAUGUCAUCGGGUG [Fam2.2 aminoacylation ribozyme variant] | 73.5 | 5.2 | 8.47 | 5.58 | 9.38 | 7.42
35 | CUACUACAAACAAUCGGUAUG [Fam1A.1 aminoacylation ribozyme variant] | 0.567 | 0.617 | 0.597 | 0.584 | 0.454 | 0.505
36 | CUACUUCAAAUAAUCGGUCUA [Fam1A.1 aminoacylation ribozyme variant] | 7.72 | 0.795 | 0.659 | 0.78 | 0.727 | 3.51
37 | AUUGACUUAGGUCAUCGGGUG [Fam2.2 aminoacylation ribozyme variant] | 39.1 | 3.47 | 5.25 | 3.95 | 6.27 | 5.77
38 | AUUACCCGGGUCAUCAAGUGA [Fam2.1 aminoacylation ribozyme variant] | 5.43 | 1.77 | 2.59 | 2.08 | 2.35 | 2.93
39 | ACACACUUCAAGCUAUCGGUC [Fam1B.1 aminoacylation ribozyme variant] | 1.15 | 1.33 | 1.03 | 1.2 | 1.1 | 0.982
40 | AGGUUUGCUAAUAGUCUCAAG [Fam3.1 aminoacylation ribozyme variant] | 9.24 | 1.17 | 1.36 | 1.22 | 1.22 | 2.89
41 | AAUCACCGAGGUCAUCGGGUG [Fam2.2 aminoacylation ribozyme variant] | 67.7 | 5.03 | 5.14 | 5.33 | 6.88 | 7.72
42 | AUUCACCUAGGUCAGUGGGUG [Fam2.2 aminoacylation ribozyme variant] | 1.08 | 0.904 | 1 | 0.999 | 1.26 | 0.885
